Test results: patent US20180064827

Tests used:
Assay in all cases: cell_activity
ZFN 63341 (synthetic) = settings: pair with 63342, Hepa1-6, 40 ug/mL
ZFN 63195 (synthetic) = settings: pair with 63194, Hepa1-6, 40 ug/mL
ZFN 63374 (synthetic) = settings: pair with 63375, Hepa1-6, 40 ug/mL
ZFN 63238 (synthetic) = settings: pair with 63236, Hepa1-6, 40 ug/mL
ZFN 63410 (synthetic) = settings: pair with 63411, Hepa1-6, 40 ug/mL
ZFN 63194 (synthetic) = settings: pair with 63195, Hepa1-6, 40 ug/mL
ZFN 63342 (synthetic) = settings: pair with 63341, Hepa1-6, 40 ug/mL
ZFN 60287 (synthetic) = settings: pair with 60289, K562
ZFN 63375 (synthetic) = settings: pair with 63374, Hepa1-6, 40 ug/mL
ZFN 63236 (synthetic) = settings: pair with 63238, Hepa1-6, 40 ug/mL
ZFN 63411 (synthetic) = settings: pair with 63410, Hepa1-6, 40 ug/mL

In the case of “TTGACTTTGAAGGGGAAGAACTGAATGT (double strand) [mouse KLKB1 63341 site]”, the activity (ZFN 63341 (synthetic)) is reported as 96.8 % indel.
In the case of “TTGTCGGTCTTAGAGATATTAAAGTTGG (double strand) [mouse KLKB1 63195 site]”, the activity (ZFN 63195 (synthetic)) is reported as 89.8 % indel.
“GGGAGCCATCTGTGGATAACCTTAAGGA (double strand) [mouse KLKB1 63374 site]” was tested, and the activity (ZFN 63374 (synthetic)) was 93.7 % indel.
For “GCAGAGTGCTGGAAAATATCCATGGGGC (double strand) [mouse KLKB1 63238 site]”, the activity (ZFN 63238 (synthetic)) was 92.5 % indel.
“TCTTTAGGGGAGTGGCCATGGCAGGTCA (double strand) [mouse KLKB1 63410 site]” showed an activity (ZFN 63410 (synthetic)) of 84.7 % indel.
“AAGGACTTGATATGAGAGGGTCCAACTT (double strand) [mouse KLKB1 63194 site]” showed an activity (ZFN 63194 (synthetic)) of 89.8 % indel.
Sequence “CTGCTCCTTGCACGAAGGTCACATTCAG (double strand) [mouse KLKB1 63342 site]” has an activity (ZFN 63342 (synthetic)) of 96.8 % indel.
“CGGAGCTCACCCTGGCCGAGTTGAGGCA (double strand) [human PCSK9 60287 site]” gave an activity (ZFN 60287 (synthetic)) of 73.1 % indel.
With “TGCATGCCATAGGTGATCCTAGTTGGGG (double strand) [mouse KLKB1 63375 site]” the activity (ZFN 63375 (synthetic)) was 93.7 % indel.
In the case of “CCGCTGAGTTCACAGGTTGCCCCATGGA (double strand) [mouse KLKB1 63236 site]”, the activity (ZFN 63236 (synthetic)) is reported as 92.5 % indel.
In the case of “TTCACTTGCAGGCTGACCTGCCATGGCC (double strand) [mouse KLKB1 63411 site]”, the activity (ZFN 63411 (synthetic)) is reported as 84.7 % indel.
